The record followed here is the nanobody polyreactivity screen of Harvey et al. (2022).

The nature of this data set: yeast display, Sf9 membrane polyspecificity reagent, FACS + sequencing; frameworks hold sequencing errors. Put shortly:
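Nanobodies from a synthetic yeast display library (Saccharomyces cerevisiae BJ5465), induced 36–48 hours with galactose, were stained 1 hour at 4 °C with 10% biotinylated, detergent-solubilized Sf9 membrane reagent, enriched on streptavidin microbeads, then FACS-sorted. Anti-HA (expression) and streptavidin (reagent binding) fluorescence set low and high (top ~1%) gates. Polyreactivity labels come from the gate of origin. Genes were colony-PCR amplified, MiSeq 2 × 250 sequenced and filtered by CDR length.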
With “QVQLVESGGGLVQAGGSLRLSCAASGSIFDRYAMGWYRQAPGKERELVAAITTSGGSTSYADSVKGRYTISRDNAKNTVYLQMNSLIPEDTAVYYCAAGYDYVFAFLNEYDYWGQGTQVTVSS”, the “polyreactivity (PSR sort gate)” value is “low polyreactivity”.

Turning to “QVQLVESGGGLVQAGGSLRLSCAASGSIFDRYDMGWYRQAPGKERELVAVINWSGGTTYYADSVKGRFTISRDNAKNTVYLQMNSLKPEDTAVYYCAADGSKPYAMDYWGQGTQVTVSS”, the “polyreactivity (PSR sort gate)” value is given as “high polyreactivity”. For the sequence “QVQLVESGGGLVQAGGSLRLSCAASGSIFDSNAMGWYRQAPGKERELVASITSDGDTYYADSVKGRFTISRDNAKNTVYLQMNSLKPEDTAVYYCAAYVPYSGLDYWGQGTQVTVSS”, the “polyreactivity (PSR sort gate)” value is “low polyreactivity”.

Consider “QVQLVESGGGLVQAGGSLRLSCAASGSIFDSNAMGWYRQAPGKERELVASITSDGDTYYADSVKGRFTISRDNAKNTVYLQMNSLKPEVTAVYYCAAYVPYSGLDYWGQGTQVTVSS”, for which the “polyreactivity (PSR sort gate)” value is listed as “low polyreactivity”. In the case of “QVQLVESGGGLVQAGGSLRLSCAASGSIFDSYAMGWYRQAPGKERELVAGIRWDSGSTYYADSVKGRFTISRDNAKNTVYLQINSLKPEDTAVYYCAADLFDFLLIDGFAVVTYGYWGQGTQVTVSS”, the “polyreactivity (PSR sort gate)” value is listed as “low polyreactivity”. For “QVQLVESGGGLVQAGGSLRLSCAASGSIFDSYAMGWYRQAPGKEWELVAAISGNSDSTYYADSVKGRFTISRDNAKNTVYLQMNSLKPEDTAVYYCAKEGGNGYDYWGQGTQVTVSS” the value was “low polyreactivity”. In the case of “QVQLVESGGGLVQAGGSLRLSCAASGSIFDTYVMGWYRQAPGKERELVAVISYSGTRTSYADSVKGRFTISRDNAKNTVYLQMNSLKPEDTAVYYCAARVTYYRTYRGRQYGYWGQGTQVTVSS” it was “high polyreactivity”. In the case of “QVQLVESGGGLVQAGGSLRLSCAASGSIFDVNAMGWYIQAPGKERELVAAISQRGTRTYYADSVKGRFTISRDNAKNTVYLQMNRLKPEDTAVYYCNRGGWRQYDSWGQGTQVTVSS” it was “high polyreactivity”.

As for “QVQLVESGGGLVQAGGSLRLSCAASGSIFDVNAMGWYRQAPGKEREMVAAISDSGGSTYYADSVKGRFTISRDNAKNTVYLQMNSLKPEDTAVYYCNAVWSWYNYYDFDYWGQGSQVTVSS”, the “polyreactivity (PSR sort gate)” value is “low polyreactivity”. In the case of “QVQLVESGGGLVQAGGSLRLSCAASGSIFDVNTMGWYRQAPGKERELVAAITNGYRTNYADSVKGRFTISRDNAKNTVYLQMNILKPEDTSVYYCNTDQGTTSDYCFWGQGTQVTVSS” it was “low polyreactivity”; in that of “QVQLVESGGGLVQAGGSLRLSCAASGSIFDVYAMGWSRQAAGTERELVAAIDSGGSSTYYADSVKGRFTISRDNAKNSVYLQMNSLKPEDTAVYYCAARPYYSWNYDYWGQGTQVTVSS”, “low polyreactivity”; in that of “QVQLVESGGGLVQAGGSLRLSCAASGSIFDYKAMGWYRQAPGKERELFADITISDDSTYYADSVKGRFTISRDNAKNTVYLQMNSLKPEDTAVYYCAADIKYYWYYYYWAYAYDYWGHGTQVTVSS”, “high polyreactivity”. In the case of “QVQLVESGGGLVQAGGSLRLSCAASGSIFDYNAMGWYRQAPGKERELVAAISSGGSTYYADSVKGRFTISRDNAKNTVYLQMNSLKPEDTEVYYCAVKVWLVIQFDYWGQGTPVTVSS” it was “low polyreactivity”; in that of “QVQLVESGGGLVQAGGSLRLSCAASGSIFDYNAMGWYRQAPGKERELVAAISVSGGSTYYADSVKGRFTISRDNAKNTVYLQMNSLKPEDTAVYYCAAETWTYGWSYDYWGQGTQVTVSS”, “high polyreactivity”. In the case of “QVQLVESGGGLVQAGGSLRLSCAASGSIFDYNAMGWYRQAPGKERELVAAITSTDSTYADSVKGRFTISRDNAKNTVYLQMNSLKPEDTAVYYCAAEDVIYYLTGQWREYDYWGQGTQVTVSS” it was “low polyreactivity”; in that of “QVQLVESGGGLVQAGGSLRLSCAASGSIFDYNPMGWYTQAPGKERELVADITSGGSTYYADSVKGRFTISRDNAKNTVYLQMNSLKPEDTAVYYCNADDAVEYSYGGGTEFYYWGQGTQVSVSS”, “low polyreactivity”; in that of “QVQLVESGGGLVQAGGSLRLSCAASGSIFDYNTMGWYRQAPGKERELVAAISSGGSTYYADSVKGRFTISRDNAKNTVYLQMNSLKPEDTAVYYCAARRAGWWGFYYWGQGTQVTVSS”, “high polyreactivity”. Regarding “QVQLVESGGGLVQAGGSLRLSCAASGSIFDYNTMGWYSQAPGKERELVAAISSGGSTYYADSVKGRFTISRDNAKTTVYLQMKSLKPEDTAVYYCAARRAGWWGFYYWGQGTQVTVSS”, the “polyreactivity (PSR sort gate)” value is reported as “high polyreactivity”. For “QVQLVESGGGLVQAGGSLRLSCAASGSIFDYNVMGWSRQAPGKERELVAAITYNDGSTYYGDSVKGRFTISRDYAKNTVYLQMNSLKPEDTAVYYCNAEQTPSGLYDYRGVEGEMGYWGQGTQVTVSS” the value was “low polyreactivity”; for “QVQLVESGGGLVQAGGSLRLSCAASGSIFDYYAMGWYRQAPGKERELVAAIDSGDITYYADSVKGRFTISRDNAKNTFYLQMNRLKPEDTAVYYCAAEGTGYSVGWQYGYWGQGTQVSVSS”, “low polyreactivity”; for “QVQLVESGGGLVQAGGSLRLSCAASGSIFDYYAMGWYRQAPGKERELVATISGGGGTTYYADSVKGRFTISRDTAKNTVYLQMNSLKPEDTAVYYCAADSLGYNYWGQGTQVTVSS”, “low polyreactivity”. For “QVQLVESGGGLVQAGGSLRLSCAASGSIFDYYAMGWYRQAPGKERELVATISWIGDRTYYADSVKGRFTISRDNAKNTVYLQMNSLKPEDTAVYYCATDYYEDWRGYVDYWYRPYDYWGHGTQVTVSS” the value was “high polyreactivity”. For the sequence “QVQLVESGGGLVQAGGSLRLSCAASGSIFDYYTMGWYRQAPGKERELVATIRSGDSTNYADSVKGRFTISRDNAKNPVYVQMNSLKPEDTAVYYCAADDGAYPTLYDYWGQGTQVTVSS”, the “polyreactivity (PSR sort gate)” value was “low polyreactivity”. In the case of “QVQLVESGGGLVQAGGSLRLSCAASGSIFEDYAMGWYRQAPGKERELDAAIDWGDGDTYYADSVKGRFTISRDNAKNSVYLQMNSLKPEDTAVYYCAADLVGYSGDYFDEEYYWGQGTQVTVSS” it was “high polyreactivity”; in that of “QVQLVESGGGLVQAGGSLRLSCAASGSIFEDYTRGWYRQAPGKERELVAAIDWSDASTFYADSVKGRFTISRDNAKNTVYLQMSLNPEDTAVYYCNVAIIFYDDDYWGQGTQVTVSS”, “high polyreactivity”; in that of “QVQLVESGGGLVQAGGSLRLSCAASGSIFEEYAMGWYRQAPGKERELVARIDESGGSTYYADSVKGRFTISRDNAKNTVYLQMNSLKPEDTAVYYCAAERYSDSWGFYSVDEGSWEMDYWGQGTQVTVSS”, “low polyreactivity”. For “QVQLVESGGGLVQAGGSLRLSCAASGSIFEFNTMGWYRQAPGKERELVAAISSADTTNYADSVKGRFTISRDNAKNTVYLQMNSLKPEDTAVYYCNKELHLSATLRVLGFDYWGQGTQVTVSS” the value was “low polyreactivity”. For “QVQLVESGGGLVQAGGSLRLSCAASGSIFEGNAMGWYRQAPGKERELVAAISTTGGITYYADSVKGRFTISRDKAKNTVYLQMNSLKPEDTAVYYCAADPSQPRIDSSNYDYWGQGTQVTVSS” the value was “low polyreactivity”; for “QVQLVESGGGLVQAGGSLRLSCAASGSIFEIYAMGWYRQAPGKERELVAAISWSGGRTYYADSVKGRFTISRDNAKNTVYLQMNSLKPEDTAVYYCNAGQWRYPGLYYYWGQGTEVTVSS”, “high polyreactivity”; for “QVQLVESGGGLVQAGGSLRLSCAASGSIFEIYDMGWYRQAPGKERELVASIRTSGGSTYYADSVKGRFTISRDNAKNTVYLQMNSLKPEDTAVYYCATGWSWYHPDYDYWGQGTQVTVSS”, “low polyreactivity”. Regarding “QVQLVESGGGLVQAGGSLRLSCAASGSIFENNAMGWYRQAPGKERELVAAISSDDTTNYADSVKGRFTISRDNAKNTVYLQMNSLKPEDTAVYYCATDYDVYGYPYDYGYWGQGTQVTVSS”, the “polyreactivity (PSR sort gate)” value is recorded as “low polyreactivity”. “QVQLVESGGGLVQAGGSLRLSCAASGSIFENNAMGWYRQAPGKERELVAAISSDDTTNYADSVKGRFTISRDNAKNTVYLQMNSLKPEDTAVYYCATDYYVYGYPYDYGYWGQGTQVTVSS”: the “polyreactivity (PSR sort gate)” value is recorded as “low polyreactivity”. For “QVQLVESGGGLVQAGGSLRLSCAASGSIFENNVMGWYRQAPGKERELVAVISWNGGRTYYADSVKGRFTISRDNAKNTVYLQMNSLKPEDTAVYYCNAQGYFWSESIEYDYWGQGTQVTVSS” the value was “low polyreactivity”; for “QVQLVESGGGLVQAGGSLRLSCAASGSIFEPNAMGRYRQAPGKEREFVAAISGSGGSTYYADSVKGRFTISRDNAKNTVYLQMNSLKPEDTAVYYCATRGKRSYFRTFYYWGEGTQVTVSS”, “high polyreactivity”; for “QVQLVESGGGLVQAGGSLRLSCAASGSIFEPYAMGWYRQAPGKERELVAAIRVSGGSTYYADSVKGRFTISRDNAKNTVYLQMNSLKPEDTAVYYCAADWWSRYYYWGQGTQVTVSS”, “high polyreactivity”.

For “QVQLVESGGGLVQAGGSLRLSCAASGSIFEPYTMGWYRQAPGKERELVAAITGSGGSTFYADSVKGRFTISRDNAKNTVYLQMNSLKPEDTAVDYCNAYAYPYTDVDYWGQGTQVTVSS”, the “polyreactivity (PSR sort gate)” value is recorded as “low polyreactivity”. For “QVQLVESGGGLVQAGGSLRLSCAASGSIFEPYVMGWYRQAPGKERELVAAIRQTGGSTYYADSVKGRFTISRDNAKNTVYLQMNSLKPEDTAVYYCNAEQNPSGLYDYRGVEGEMGYWGQGTQVTVSS” the value was “low polyreactivity”; for “QVQLVESGGGLVQAGGSLRLSCAASGSIFEQYTMGWYRQAPGKERELVAAISRRSGRTYYADSVKGRFTISRDNAKNTVYLQMNRLKPEDTAVYYCNTVYYGNFYSTRYDYWGQGTQVTVSS”, “high polyreactivity”; for “QVQLVESGGGLVQAGGSLRLSCAASGSIFERNAMGWYRQAPGKERELVAGISSSGRTNYADSVKGRFTISRDNAKNTVYLQMNSLKPEDTAVYYCSADTYLYWEYDYWGQGTQVTVSS”, “low polyreactivity”. In the case of “QVQLVESGGGLVQAGGSLRLSCAASGSIFERYAMGWYRQSPGKEREFVATITSGGGRTYYADSVKGRFTISRENAKNTVYLQMNSLKPEDTAVYYCGAASYRRQPFNYWGQGTQVTVSS” it was “high polyreactivity”.
